Source: paper PMC10786891, “Massively parallel profiling of RNA-targeting CRISPR-Cas13d”
Positions count from the first letter of the chain named. Numbers in names are those of the source.

T1: EsCas13d, nuclease-dead (Eubacterium siraeum, UniProt B0MS50, R295A;H300A;R849A;H854A)
T1 sequence: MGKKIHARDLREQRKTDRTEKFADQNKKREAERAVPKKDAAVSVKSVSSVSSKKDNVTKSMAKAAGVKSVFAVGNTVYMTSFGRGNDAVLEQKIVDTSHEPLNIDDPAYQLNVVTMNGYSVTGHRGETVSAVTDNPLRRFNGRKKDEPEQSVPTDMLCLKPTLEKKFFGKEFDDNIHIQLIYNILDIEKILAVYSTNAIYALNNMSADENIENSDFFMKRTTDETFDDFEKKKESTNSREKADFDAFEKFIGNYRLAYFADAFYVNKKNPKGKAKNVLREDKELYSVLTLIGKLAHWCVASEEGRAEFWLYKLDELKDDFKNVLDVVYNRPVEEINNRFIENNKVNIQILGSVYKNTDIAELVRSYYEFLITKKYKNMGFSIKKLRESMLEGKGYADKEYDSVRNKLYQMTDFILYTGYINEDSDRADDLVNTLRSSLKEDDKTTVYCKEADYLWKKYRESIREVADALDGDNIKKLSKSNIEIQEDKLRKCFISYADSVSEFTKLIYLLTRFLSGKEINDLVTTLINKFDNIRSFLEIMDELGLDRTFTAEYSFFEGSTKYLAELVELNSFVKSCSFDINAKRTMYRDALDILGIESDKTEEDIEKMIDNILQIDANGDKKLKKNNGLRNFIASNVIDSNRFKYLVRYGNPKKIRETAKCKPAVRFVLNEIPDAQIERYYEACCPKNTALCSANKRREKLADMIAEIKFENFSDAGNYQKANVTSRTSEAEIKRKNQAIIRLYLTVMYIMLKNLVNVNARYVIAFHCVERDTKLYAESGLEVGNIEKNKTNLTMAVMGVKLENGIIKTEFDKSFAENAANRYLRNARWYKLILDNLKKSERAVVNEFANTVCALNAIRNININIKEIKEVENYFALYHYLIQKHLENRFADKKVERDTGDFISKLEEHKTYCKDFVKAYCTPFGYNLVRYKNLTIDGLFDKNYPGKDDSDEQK

B1: target 1 MT 5'PFS UUA 3'PFS AUC (mixed)
RNA 1: CACCCGUGCAAAAAUGCAGGGGUCUAAAACUGAGCGGAUAACCUCUCUAUGG
RNA 2: GGGAAUGGAUCCACAUCUACGAAUUCUUACCAUAGAGAGGUUAUCCGCUCAAUCAGAUCGGAAGAGCACACGU
B2: target 1 MT 5'PFS GCA 3'PFS UCU (mixed)
RNA 1: B1 RNA 1
RNA 2: B1 RNA 2 with U27G, U28C, A52U, U53C, C54U
B3: target 1 MT 5'PFS CCG 3'PFS ACA (mixed)
RNA 1: B1 RNA 1
RNA 2: B1 RNA 2 with U27C, U28C, A29G, U53C, C54A
B4: target 1 MT 5'PFS GUU 3'PFS UGA (mixed)
RNA 1: B1 RNA 1
RNA 2: B1 RNA 2 with U27G, A29U, A52U, U53G, C54A
B5: target 1 MT 5'PFS ACC 3'PFS UAG (mixed)
RNA 1: B1 RNA 1
RNA 2: B1 RNA 2 with U27A, U28C, A29C, A52U, U53A, C54G
B6: target 1 MT 5'PFS AAC 3'PFS AAG (mixed)
RNA 1: B1 RNA 1
RNA 2: B1 RNA 2 with U27A, U28A, A29C, U53A, C54G
B7: target 1 MT 5'PFS GCA 3'PFS UCG (mixed)
RNA 1: B1 RNA 1
RNA 2: B1 RNA 2 with U27G, U28C, A52U, U53C, C54G
B8: target 1 MT 5'PFS GCA 3'PFS UCA (mixed)
RNA 1: B1 RNA 1
RNA 2: B1 RNA 2 with U27G, U28C, A52U, U53C, C54A
B9: target 1 MT 5'PFS GCA 3'PFS AGC (mixed)
RNA 1: B1 RNA 1
RNA 2: B1 RNA 2 with U27G, U28C, U53G
B10: target 1 MT 5'PFS CCU 3'PFS CGC (mixed)
RNA 1: B1 RNA 1
RNA 2: B1 RNA 2 with U27C, U28C, A29U, A52C, U53G
B11: target 1 MT 5'PFS AAA 3'PFS CAC (mixed)
RNA 1: B1 RNA 1
RNA 2: B1 RNA 2 with U27A, U28A, A52C, U53A
B12: target 1 MT 5'PFS AAA 3'PFS ACC (mixed)
RNA 1: B1 RNA 1
RNA 2: B1 RNA 2 with U27A, U28A, U53C
B13: target 1 MT 5'PFS GUU 3'PFS UGC (mixed)
RNA 1: B1 RNA 1
RNA 2: B1 RNA 2 with U27G, A29U, A52U, U53G
B14: target 1 MT 5'PFS AAC 3'PFS AAC (mixed)
RNA 1: B1 RNA 1
RNA 2: B1 RNA 2 with U27A, U28A, A29C, U53A
B15: target 1 MT 5'PFS GGA 3'PFS GAG (mixed)
RNA 1: B1 RNA 1
RNA 2: B1 RNA 2 with U27G, U28G, A52G, U53A, C54G
B16: target 1 MT 5'PFS CCU 3'PFS AGA (mixed)
RNA 1: B1 RNA 1
RNA 2: B1 RNA 2 with U27C, U28C, A29U, U53G, C54A
B17: target 1 MT 5'PFS GGC 3'PFS CCG (mixed)
RNA 1: B1 RNA 1
RNA 2: B1 RNA 2 with U27G, U28G, A29C, A52C, U53C, C54G
B18: target 1 MT 5'PFS ACC 3'PFS UAC (mixed)
RNA 1: B1 RNA 1
RNA 2: B1 RNA 2 with U27A, U28C, A29C, A52U, U53A
B19: target 1 MT 5'PFS GUU 3'PFS CGC (mixed)
RNA 1: B1 RNA 1
RNA 2: B1 RNA 2 with U27G, A29U, A52C, U53G
B20: target 1 MT 5'PFS UCG 3'PFS AUC (mixed)
RNA 1: B1 RNA 1
RNA 2: B1 RNA 2 with U28C, A29G
B21: target 1 MT 5'PFS AAG 3'PFS AAG (mixed)
RNA 1: B1 RNA 1
RNA 2: B1 RNA 2 with U27A, U28A, A29G, U53A, C54G
B22: target 1 MT 5'PFS AGG 3'PFS CAG (mixed)
RNA 1: B1 RNA 1
RNA 2: B1 RNA 2 with U27A, U28G, A29G, A52C, U53A, C54G
B23: target 1 MT 5'PFS AAA 3'PFS ACG (mixed)
RNA 1: B1 RNA 1
RNA 2: B1 RNA 2 with U27A, U28A, U53C, C54G
B24: target 1 MT 5'PFS AAA 3'PFS ACA (mixed)
RNA 1: B1 RNA 1
RNA 2: B1 RNA 2 with U27A, U28A, U53C, C54A
B25: target 1 MT 5'PFS GGC 3'PFS CCA (mixed)
RNA 1: B1 RNA 1
RNA 2: B1 RNA 2 with U27G, U28G, A29C, A52C, U53C, C54A
B26: target 1 MT 5'PFS AAC 3'PFS CCG (mixed)
RNA 1: B1 RNA 1
RNA 2: B1 RNA 2 with U27A, U28A, A29C, A52C, U53C, C54G
B27: target 1 MT 5'PFS AAA 3'PFS ACU (mixed)
RNA 1: B1 RNA 1
RNA 2: B1 RNA 2 with U27A, U28A, U53C, C54U
B28: target 1 insG 3' of 18,insG 3' of 10 (mixed)
RNA 1: B1 RNA 1
RNA 2: GGGAAUGGAUCCACAUCUACGAAUUCGUACCAUAGGAGAGGUUGAUCCGCUCACCGAGAUCGGAAGAGCACACGU
B29: target 1 insU 3' of 13,insU 3' of 13 (mixed)
RNA 1: B1 RNA 1
RNA 2: B28 RNA 2 with G36A, A37G, G38A, A39G, G40U, G41U, U42G, G44U
B30: target 1 C6U,U19C (mixed)
RNA 1: B1 RNA 1
RNA 2: B1 RNA 2 with U27G, U33C, C46U, A52C, U53C, C54G
B31: target 1 insG 3' of 20,insA 3' of 10 (mixed)
RNA 1: B1 RNA 1
RNA 2: B28 RNA 2 with U33G, A34U, G35A, G44A
B32: target 1 MT 5'PFS GUU 3'PFS CGA (mixed)
RNA 1: B1 RNA 1
RNA 2: B1 RNA 2 with U27G, A29U, A52C, U53G, C54A
B33: target 1 MT 5'PFS UCG 3'PFS AUU (mixed)
RNA 1: B1 RNA 1
RNA 2: B1 RNA 2 with U28C, A29G, C54U
B34: target 1 MT 5'PFS CCG 3'PFS CAC (mixed)
RNA 1: B1 RNA 1
RNA 2: B1 RNA 2 with U27C, U28C, A29G, A52C, U53A
B35: target 1 MT 5'PFS GUU 3'PFS UGU (mixed)
RNA 1: B1 RNA 1
RNA 2: B1 RNA 2 with U27G, A29U, A52U, U53G, C54U
B36: target 1 MT 5'PFS UUG 3'PFS CUU (mixed)
RNA 1: B1 RNA 1
RNA 2: B1 RNA 2 with A29G, A52C, C54U
B37: target 1 del4,del8 (mixed)
RNA 1: B1 RNA 1
RNA 2: GGGAAUGGAUCCACAUCUACGAAUUCGUACCAUAGAGAGGUUACCGUCACCGAGAUCGGAAGAGCACACGU
B38: target 1 MT 5'PFS GAG 3'PFS CGA (mixed)
RNA 1: B1 RNA 1
RNA 2: B1 RNA 2 with U27G, U28A, A29G, A52C, U53G, C54A
B39: target 1 MT 5'PFS GAG 3'PFS CGG (mixed)
RNA 1: B1 RNA 1
RNA 2: B1 RNA 2 with U27G, U28A, A29G, A52C, U53G, C54G

Target: T1, EsCas13d, nuclease-dead
Assay: crRNA (strand 1, pre-loaded); Mg2+; 40 mM Tris-HCl pH 7.5, 150 mM NaCl, 6 mM MgCl2, 1 mM DTT, 0.1% Tween-20, 0.2 mg/ml BSA; 25 C; 10 min per concentration, then washed
Conditions: tags: His6-TwinStrep-SUMO cleaved; N-terminal SNAP kept (SNAP-Surface 488); label: 3' end held by stalled T7 RNA polymerase

Binder	Kd [nM]
B1	20.5 ± 5
B2	10.6 ± 2.55
B3	38.5 ± 13
B4	16.8 ± 2.5
B5	~14.5
B6	34.5 ± 15
B7	13.7 ± 2.4
B8	11.8 ± 2.9
B9	28.5 ± 14
B10	~15.5
B11	29.5 ± 11.5
B12	42 ± 13.5
B13	15.5 ± 2.7
B14	84.5 ± 41.5
B15	19 ± 6
B16	31.5 ± 14.5
B17	8.35 ± 1.4
B18	31 ± 14.5
B19	19.8 ± 4.5
B20	42 ± 13

Binder	Kd [nM]
B21	20.5 ± 4.5
B22	~41
B23	18.6 ± 4.45
B24	29.5 ± 14
B25	31.5 ± 10.5
B26	19.5 ± 4.45
B27	12.1 ± 2.6
B28	61 ± 15
B29	6.5 ± 0.6
B30	29.7 ± 2
B31	42 ± 8
B32	19.7 ± 4.2
B33	32.5 ± 10.5
B34	6.45 ± 2.75
B35	34.5 ± 6.5
B36	14.4 ± 3.55
B37	12.1 ± 1
B38	~49
B39	~100
